Tests used:
[1] = molecular target: FRB domain of human mTOR / FKBP-12 (FRB-NLuc/CLuc-FKBP LCI pair) (Homo sapiens, UniProt P42345+P62942); test: Luciferase complementation imaging (LCI) of rapamycin-induced FRB/FKBP association in live HEK-293 cells; assay type: cell-based; settings: HEK293, read-out: EC90 of rapamycin; HEK-293 cells transfected with FRB-NLuc/CLuc-FKBP
Protocol: Data, expressed as mean photon flux±SEM of quadruplicate wells, are representative of three independent tests.
HEK-293 cells were cultured in Dulbecco's Modified Eagle Medium (DMEM), (Life Technologies, 2575 University Ave. W., St. Paul, Minn. 55114 USA) supplemented with 10% fetal calf serum (FCS), 1% glutamine, 0.1% P/S, 0.1% fungizone. Cells (3×10^6/10 cm dish or 1.5×10^5 per 35 mm dish) were transiently co-transfected with pairs of plasmids as indicated using FuGene-6 (Roche) according to the manufacturers directions.

[2] = system: Cdc25C-NLuc/CLuc-14-3-3ε LCI pair; test: LCI of Cdc25C/14-3-3ε interaction in HEK-293 cells; assay type: cell-based, human; settings: UCN-01 1 μM, 6 hrs
Protocol: HEK-293 cells transfected with Cdc25C-NLuc/CLuc-14-3-3ε or mutant S216A Cdc25C-NLuc/CLuc-14-3-3ε were treated with vehicle alone or UCN-01 (1 μM) for 6 hrs prior to LCI. Data are expressed as percent of bioluminescence relative to untreated Cdc25C-NLuc/CLuc-14-3-3ε in cells and represent the mean±SEM of three independent experiments, n=4 each.
To replace the FRB with human Cdc25C or human p91 STAT1 (J. E. Darnell Jr., The Rockefeller University, 1230 York Avenue, NY, N.Y. 10021, USA.) in the NLuc fusion vector, open reading frames of these cDNAs were amplified by PCR using 5′ primers containing a BamHI site and Kozak consensus sequence upstream of the start site and 3′ primers which reconstituted the linker region up to the BsiWI site. FRB was replaced using the BamHI and BsiWI sites. FKBP was similarly replaced with 14-3-3ε or STAT1 using BsiWI at the 3′ end and EcoRV at the 5′ end.
Cells (1×10^4/well in 100 μl media) were transferred to 96-well black walled plates 16-24 hrs after transfection. At the times indicated, growth media was replaced with media containing appropriate drugs or vehicles. To image live cells, D-luciferin (10 μl of 1.5 mg/ml in PBS) was added to wells. Photon flux for each well was measured 8-10 min after addition of D-luciferin with an IVIS CCD camera (1 min exposure, f-stop=1, binning 8, FOV 15 cm). […]

[3] = system: phosphorylation of Cdc25C-NLuc on S216; test: Western blot of phospho-S216 Cdc25C-NLuc in HEK-293 cells; assay type: cell-based, human; settings: UCN-01 1 μM, 6 hrs
Protocol: Cells were left untreated or treated with UCN-01 (1 μM) for 6 hrs prior to lysis, processed for Western analysis and then probed with the antibodies indicated to visualize expression, phosphorylation, and the effect of UCN-01 on the LCI constructs.
Cells (3×10^6/10 cm dish) were transfected with the indicated plasmids (6 μg each). Media was removed 6 hrs prior to lysis and replaced with media containing UCN-01 at the concentrations indicated. Cells were washed with PBS and lysed by incubation for 30 min at 4° C. with 1 ml RIPA buffer containing protease inhibitors (50 mM tris-HCl, pH 7.4, 1% NP-40, 0.25% deoxycholic acid, 150 mM NaCl, 1 mM EDTA, 1 mM each PMSF, sodium orthovanadate, and NaF, 1 μg/ml each leupeptin, aprotinin, pepstatin). After centrifugation to remove insoluble material, protein concentration was determined by BCA (Pierce Biotechnology, Inc., Customer Service Department, P.O. Box 117, Rockford, Ill. 61105 U.S.A). The Bicinchoninic Acid (BCA) test to determine protein concentration is a highly sensitive alternate assay to the Lowry assay.
Proteins (200 μg) were separated by SDS-PAGE and analyzed using polyclonal primary antibodies against pGL3 luciferase (Promega US, 2800 Woods Hollow Road, Madison Wis. 53711, USA) or phospho-S216-Cdc25C (Santa Cruz Biotechnologies, 2145 Delaware Avenue, Santa Cruz, Calif. 95060, U.S.A.). […]

[4] = system: STAT1-NLuc, CLuc-STAT1, endogenous p91 and p84 STAT1 phosphorylation; test: Western blot of Y701 phosphorylation of STAT1 reporters and endogenous STAT1 in HEK-293 cells; assay type: cell-based, human; settings: IFN-γ 1000 U/ml, 30 min
Protocol: Cells were left untreated or treated with IFN-γ (1000 U/ml) for 30 min prior to lysis, processed for Western analysis and then probed with the antibodies indicated to visualize expression and IFN-γ-induced phosphorylation of STAT1-NLuc (grey arrows), CLuc-STAT1 (black arrows), and endogenous p91 and p84 STAT1 (unfilled arrows). Intact luciferase expression (hatched arrow) is also shown. Note that while STAT1-NLuc could not be visualized using the STAT1 antibody, the fusion could be visualized with both Luc and phospho-STAT1 antibodies.

[5] = system: STAT1-NLuc/CLuc-STAT1 LCI pair (nuclear accumulation); test: Bioluminescence of nuclear extracts of cells expressing STAT1-NLuc/CLuc-STAT1; assay type: cell-based, human
Protocol: HEK-293 cells were transiently transfected with STAT1-NLuc/CLuc-STAT1, the Y701F STAT1 mutant LCI pair, or intact luciferase. […] To measure bioluminescence in extracts, an assay buffer including D-luciferin and ATP (Luciferase Assay Buffer, Promega, USA) was added to duplicate samples of each extract. Bars show the ratio +/−SEM of mean photon flux/μg protein for extracts of IFN-γ treated over untreated cells. […] Duplicate determinations are vertically arranged with independent extracts arrayed horizontally.
(§1) To confirm that phosphorylated STAT1 LCI pairs were biologically functional, the inventors measured the IFN-γ-inducible nuclear accumulation of bioluminescence activity. Cytoplasmic and nuclear extracts were prepared from untreated and IFN-γ-treated HEK-293 cells transiently co-transfected with the STAT1-NLuc/CLuc-STAT1 LCI pair, the Y701F mutant pair, or intact luciferase. […] Western blots of the cytoplasmic and nuclear extracts used in FIG. 16. confirmed purity of the extracts, neither fraction showing cross-contamination as assessed by the marker proteins β-tubulin (cytoplasm) and Topo II (nucleus), respectively (data not shown). Western blots also confirmed virtually identical expression levels of wild-type and Y701F mutant LCI pairs as well as appropriate phosphorylation of STAT1 proteins and reporters (data not shown).

[6] = system: STAT1-NLuc/CLuc-STAT1 LCI pair; test: LCI of STAT1-NLuc/CLuc-STAT1 in intact transduced cells (HEK-293, 2ftgh, U3A); assay type: cell-based, human; settings: any time or any dose
Protocol: Each transduced cell line was sorted by FACS for expression of appropriate fluorescence markers (EGFP and mRFP) to enrich for cells carrying the imaging constructs. These enriched populations were seeded in a 96-well format (10^4 cells/well), and left untreated or treated with […] (1000 U/ml for 30 min). Bars represent the mean +/−SEM (n=4) for a representative test. Note the y-axis log scale.
The STAT1-NLuc and CLuc-STAT1 open reading frames were cloned into lentiviral vectors (gift of J. Milbrandt, Washington University in St. Louis, One Brookings Drive, St. Louis, Mo. 63130, USA ) downstream of a CMV promoter and upstream of an IRES linked to EGFP (Clontech) or mRFP (R. Tsien, UCSD), respectively.
Cells (1×10^4/well in 100 μl media) were transferred to 96-well black walled plates 16-24 hrs after transfection. At the times indicated, growth media was replaced with media containing appropriate drugs or vehicles. To image live cells, D-luciferin (10 μl of 1.5 mg/ml in PBS) was added to wells. Photon flux for each well was measured 8-10 min after addition of D-luciferin with an IVIS CCD camera (1 min exposure, f-stop=1, binning 8, FOV 15 cm). Cell lyastes used for imaging were prepared using Reporter Lysis Buffer (Promega US, 2800 Woods Hollow Road, Madison Wis. 53711, USA) according to the manufacturers directions.

[7] = system: Y701F mutant STAT1 LCI pair; test: Bioluminescence of nuclear extracts of cells expressing the Y701F mutant STAT1 LCI pair; assay type: cell-based, human; settings: IFN-γ 20 min, 100 U/ml, HEK-293
Protocol: HEK-293 cells were transiently transfected with STAT1-NLuc/CLuc-STAT1, the Y701F STAT1 mutant LCI pair, or intact luciferase. Forty-eight hours after transfection, cells were left untreated or treated with IFN-γ (1000 U/ml for 20 min) (n=3 for each) and then extracts prepared. To measure bioluminescence in extracts, an assay buffer including D-luciferin and ATP (Luciferase Assay Buffer, Promega, USA) was added to duplicate samples of each extract. Bars show the ratio +/−SEM of mean photon flux/μg protein for extracts of IFN-γ treated over untreated cells. […] Duplicate determinations are vertically arranged with independent extracts arrayed horizontally.
as §1, with “Western blots also confirmed virtually identical expression levels of wild-type and Y701F mutant LCI pairs as well as appropriate phosphorylation of STAT1 proteins and reporters (data not shown).” left out

Chain of FRB domain of human mTOR / FKBP-12 (FRB-NLuc/CLuc-FKBP LCI pair) (P42345 2024-2113): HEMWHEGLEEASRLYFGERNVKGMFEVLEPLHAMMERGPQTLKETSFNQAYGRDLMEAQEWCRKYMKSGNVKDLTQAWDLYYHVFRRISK
Chain of FRB domain of human mTOR / FKBP-12 (FRB-NLuc/CLuc-FKBP LCI pair) (P62942 2-108): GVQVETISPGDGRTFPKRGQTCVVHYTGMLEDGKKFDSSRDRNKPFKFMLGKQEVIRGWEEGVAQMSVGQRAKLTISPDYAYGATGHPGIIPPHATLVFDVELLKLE

CO[C@H]1C[C@@H]2CC[C@@H](C)[C@@](O)(O2)C(=O)C(=O)N2CCCC[C@H]2C(=O)O[C@H]([C@H](C)C[C@@H]2CC[C@@H](O)[C@H](OC)C2)CC(=O)[C@H](C)/C=C(\C)[C@@H](O)[C@@H](OC)C(=O)[C@H](C)C[C@H](C)/C=C/C=C/C=C/1C [rapamycin]
EC90 [1]: 80 nM

CN[C@@H]1C[C@H]2O[C@@](C)([C@@H]1OC)n1c3ccccc3c3c4c(c5c6ccccc6n2c5c31)C(=O)N[C@@H]4O [UCN-01]
effect on bioluminescence of Cdc25C-NLuc/CLuc-14-3-3ε [2]: decreased bioluminescence
effect on phosphorylation of Cdc25C-NLuc on S216 [3]: reduction in phosphorylation

B1: IFN-γ: interferon-γ, activates JAK1-mediated phosphorylation of STAT1 on Y701 (protein, UniProt P01579 24-161, looked up)
Interferon gamma: QDPYVKEAENLKKYFNAGHSDVADNGTLFLGILKNWKEESDRKIMQSQIVSFYFKLFKNFKDDQSIQKSVETIKEDMNVKFFNSNKKKRDDFEKLTNYSVTDLNVQRKAIHELIQVMAELSPAAKTGKRKRSQMLFRG
phosphorylation of STAT1-NLuc, CLuc-STAT1 and endogenous p91 and p84 STAT1 [4]: resulted in phosphorylation
bioluminescence (photon flux/μg protein) in nuclear extracts of HEK-293 cells ([5]; IFN-γ 20 min): specifically increased
increase in bioluminescence of nuclear extracts of U3A cells ([5]; IFN-γ 30 min, n=3): 6 fold
effect on bioluminescence of co-transduced intact cells [6]: failed to change bioluminescence
nuclear bioluminescence in extracts of cells with mutant STAT1 LCI pair [7]: No such IFN-γ-induced increase
